The target of the data set is T1, PUS7(Δ1-98) (Homo sapiens, UniProt Q96PZ0 99-661, del1-98).
T1 sequence: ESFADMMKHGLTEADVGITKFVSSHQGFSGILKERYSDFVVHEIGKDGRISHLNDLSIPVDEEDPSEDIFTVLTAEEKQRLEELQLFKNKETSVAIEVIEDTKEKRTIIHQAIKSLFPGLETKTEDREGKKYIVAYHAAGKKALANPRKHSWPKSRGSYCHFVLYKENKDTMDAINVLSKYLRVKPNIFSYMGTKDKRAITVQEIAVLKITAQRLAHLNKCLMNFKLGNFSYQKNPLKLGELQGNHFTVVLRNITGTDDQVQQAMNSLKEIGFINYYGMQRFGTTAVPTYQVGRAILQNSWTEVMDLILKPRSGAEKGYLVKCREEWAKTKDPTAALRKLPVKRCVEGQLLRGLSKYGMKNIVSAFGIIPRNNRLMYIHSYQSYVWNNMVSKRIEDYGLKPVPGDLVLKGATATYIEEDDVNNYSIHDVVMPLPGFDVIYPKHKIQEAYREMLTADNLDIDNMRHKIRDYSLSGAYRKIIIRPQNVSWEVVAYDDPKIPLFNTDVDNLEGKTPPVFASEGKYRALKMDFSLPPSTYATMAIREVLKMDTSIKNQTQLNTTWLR
As to the kind of experiment: filter binding.

One may read the Kd as the free concentration of one partner at which half of the binding sites on the other are occupied at equilibrium, for simple one-to-one binding. A higher Kd goes with lower affinity.

In turn, GGGGCCCCAUGGUGUAAUGG (ssRNA) [18mer-cy-tRNAGln] gave a Kd of 267 ± 91 nM.

The values are drawn from publication PMC8599909.
